Target: T1, ΔHNH-Cas9 (ΔHNH-4; T769-K918 replaced by GGSGGS) (Streptococcus pyogenes)
T1 chain: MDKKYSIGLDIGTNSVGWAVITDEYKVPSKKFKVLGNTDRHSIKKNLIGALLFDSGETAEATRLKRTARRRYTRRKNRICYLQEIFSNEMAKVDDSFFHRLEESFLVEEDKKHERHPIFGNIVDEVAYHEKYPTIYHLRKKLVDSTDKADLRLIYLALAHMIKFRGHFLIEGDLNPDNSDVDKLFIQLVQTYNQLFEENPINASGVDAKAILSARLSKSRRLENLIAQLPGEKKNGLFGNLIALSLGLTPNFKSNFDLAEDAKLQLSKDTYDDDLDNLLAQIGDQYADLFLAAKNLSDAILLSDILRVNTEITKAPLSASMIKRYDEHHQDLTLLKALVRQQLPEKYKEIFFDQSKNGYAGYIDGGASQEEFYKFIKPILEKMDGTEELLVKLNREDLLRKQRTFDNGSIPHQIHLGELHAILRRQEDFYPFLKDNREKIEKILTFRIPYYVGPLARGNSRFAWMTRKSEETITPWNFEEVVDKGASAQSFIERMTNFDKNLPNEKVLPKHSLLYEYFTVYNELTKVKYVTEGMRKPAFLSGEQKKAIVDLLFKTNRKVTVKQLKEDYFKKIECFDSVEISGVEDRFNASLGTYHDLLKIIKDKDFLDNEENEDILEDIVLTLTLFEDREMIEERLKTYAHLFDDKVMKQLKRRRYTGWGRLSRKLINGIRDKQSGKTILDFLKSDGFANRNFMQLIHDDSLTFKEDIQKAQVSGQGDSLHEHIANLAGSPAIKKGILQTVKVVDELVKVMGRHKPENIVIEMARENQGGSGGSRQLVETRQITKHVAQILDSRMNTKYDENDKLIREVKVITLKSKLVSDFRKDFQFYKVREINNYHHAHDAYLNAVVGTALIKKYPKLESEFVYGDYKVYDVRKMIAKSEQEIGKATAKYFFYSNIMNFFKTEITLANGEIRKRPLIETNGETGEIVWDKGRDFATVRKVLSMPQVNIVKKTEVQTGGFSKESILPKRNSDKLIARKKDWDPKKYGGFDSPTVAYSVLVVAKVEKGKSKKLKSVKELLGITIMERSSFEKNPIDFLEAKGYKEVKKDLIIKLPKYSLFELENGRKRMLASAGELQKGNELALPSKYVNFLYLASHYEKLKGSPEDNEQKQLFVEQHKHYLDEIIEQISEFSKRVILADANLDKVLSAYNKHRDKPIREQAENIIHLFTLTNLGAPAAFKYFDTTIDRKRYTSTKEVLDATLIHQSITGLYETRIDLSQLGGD
Test: EMSA; PAM TGG; 5 mM MgCl2, 100 mM KCl, pH 7.5, 50 ug/mL heparin, room temperature, 100 nM sgRNA
Conditions: tags: N-terminal His10-MBP, TEV protease treated; label: 5'-radiolabel; single-guide RNA
Experimental: Binding reactions (15 μL) were performed at room temperature in Reaction Buffer supplemented with 50 μg/mL heparin using <0.1 nM radiolabeled dsDNA substrates. Reactions were resolved by 8% native polyacrylamide gel electrophoresis (0.5×TBE, 5 mM MgCl₂) for 1.5-2 hr at 4° C. in a running buffer containing 0.5×TBE and 5 mM MgCl₂. Reactions were visualized by phosphorimaging (GE Healthcare).
Reactions were resolved by 8% native polyacrylamide gel electrophoresis. […] Solid lines represent fits from binding isotherms.

B1: sgRNA (bacteriophage target) ; 55-bp DNA substrate (ssRNA ; dsDNA)
RNA: GACGCAUAAAGAUGAGACGCGUUUUAGAGCUAUGCUGUUUUGGAAACAAAACAGCAUAGCAAGUUAAAAUAAGGCUAGUCCGUUAUCAACUUGAAAAAGUGGCACCGAGUCGGUGCUUUUUUUGGAUC
DNA 1: AGCAGAAATCTCTGCTGACGCATAAAGATGAGACGCTGGAGTACAAACGTCAGCT
DNA 2: AGCTGACGTTTGTACTCCAGCGTCTCATCTTTATGCGTCAGCAGAGATTTCTGCT
  Kd: 1.2 nM
